The source of these data is US11285274B2, “Methods for the systemic delivery of therapeutic agents to the pulmonary system using a droplet delivery device” (PNEUMA RESPIRATORY, INC., priority 2016, dated 2022).

Values joined by “and” are separate entries in the source; they are usually repeats but may differ in a detail not shown here. Equal entries are not always repeated.

A short description of data set [1]: Gel electrophoresis of active agent after droplet generation. Format: physicochemical. An excerpt: To determine the stability of active agent after droplet generation, the generated stream of droplets including the active agent is collected and the molecular weight of the active agent is verified using gel electrophoresis.
A short description of data set [2]: Size exclusion chromatography (SEC) stability after aerosol generation with test device. The format is physicochemical. Conditions: for Peak Area %, Peak 1 / Peak Area %, Peak 2 / Peak Area %, Peak 3: Insulin (Humalog Kwikpen 200 U/ml). An excerpt:
Alternately, to determine the stability of active agent after droplet generation, the generated stream of droplets including the active agent may be collected and […] may be employed to monitor for any changes in large molecule aggregation and protein fragment content. Soluble protein aggregates and protein fragment content may be calculated by comparing respective peak area under the SEC-HPLC curve of dispensed protein solutions with controls (solutions remaining in the device reservoir). Drug solutions for testing include Enbrel, (ENBREL® single-use prefilled syringes in 25 mg (0.51 mL of a 50 mg/mL solution of etanercept), and insulin, (Humalog, 200 units/ml, 3 ml […] is performed with a YarraTM 3 um SEC-2000 LC column 300×7.8 mm, SecurityGuard cartridge kit and SecurityGuard cartridges GFC-2000, 4×3 mm ID. Fifty microliters of Enbrel from the syringe (ENBREL® single-use prefilled syringes in 25 mg/0.51 mL of a 50 mg/mL solution of etanercept) is diluted (4:1) (4 parts, 200 mcl of the mobile phase buffer solution to 1 part, 50 mcl Enbrel from syringe). Fifty microliter of the diluted Enbrel is injected and separation was performed at a flow rate of 1.0 ml/min. The mobile phase buffer system included a PHOS. BUFF. SALINE. […] UV detection is performed at 280 nm. […] Aerosol collection and SEC is performed in a similar fashion as for the Enbrel analysis and aerosol collection. […] Fifty microliters of the collected aerosol spray is injected onto the SEC column for analysis, while 50 mcl of the […] insulin solution is injected onto the SEC column for control samples.

Data set [3] deals with patients with cystic fibrosis. The note with it: cited from earlier work.
Setting [4] is: aerosolized with test device (20 actuations), SEC.
Setting [5] is: Insulin aerosolized with test device.
The mark [6] stands for this setting: Enbrel aerosolized with test device.
The mark [7] stands for this setting: Enbrel aerosolized, average of S1 and S2.
Where [8] appears, read: Enbrel diluted 4:1 (10 mg/ml), control (not aerosolized), SEC, UV 280 nm.

As to adalimumab, the “change in electrophoretic mobility (molecular weight) of post-aerosol active agent from control” value (“change in electrophoretic mobility” for short) in data set [1] was “negligible change”.
Take bevacizumab: the “change in electrophoretic mobility” value in data set [1] is “negligible change”.
Insulin: in data set [2] (setting [4]), the “Peak Area %, Peak 1” value is 27.881% and 28.721%; the “Peak Area %, Peak 2” value is 69.780% and 67.807%; the “Peak Area %, Peak 3” value was 2.184% and 2.797%. In data set [2] (control (not aerosolized), SEC), the “Peak Area %, Peak 1” value is given as 29.926%; the “Peak Area %, Peak 2” value was determined as 69.630%; the “Peak Area %, Peak 3” value came out at 0%. Further, in data set [2] (setting [5]), the “fraction of the ejected dose forming a fragment which elutes at ~25 minutes” value is given as 2.5% and the “fraction of the ejected dose structurally unchanged” value is on record as 97.5%. Besides, in data set [2] (Insulin aerosolized, average of S1 and S2), the “Peak Area %, Peak 3, Avg.” value stood at 2.4905%.
As to etanercept [Enbrel], in data set [1], the “change in electrophoretic mobility” value is on record as “negligible change”. In addition, in data set [2] (setting [6]), the “fraction of the dose forming molecular fragments with elution times of 13 and 25 minutes” value is reported as 4.6%; the “fraction structurally unchanged after delivering an aerosol dose” value was determined as 95.4%. In data set [2] (setting [7]), the “Peak Area %, Peak 4, Avg.” value turned out to be 0.3545% and the “Peak Area %, Peak 5, Avg.” value turned out to be 4.2755%. Further, in data set [2] (setting [8]), the “Peak Area %, Peak 4” value turned out to be 0% and the “Peak Area %, Peak 5” value is 0%.
For `NC[C@H]1O[C@H](O[C@H]2[C@H](O)[C@@H](O[C@H]3O[C@H](CO)[C@@H](O)[C@H](N)[C@H]3O)[C@H](N)C[C@@H]2N)[C@H](N)C[C@@H]1O` [tobramycin], the “pulmonary function and kidney side effects” value in data set [3] (administration by inhalation) is given as “significantly improves pulmonary function without severe side effects to kidney functions”. In addition, the “serum levels and kidney toxicity” value in data set [3] (intravenous administration) is given as “very high serum levels that are toxic to the kidneys”.
